Results from article PMC6459735 (Journal of biomolecular structure & dynamics, 2019).

Target: the molecule itself
Assay: crystal structure

B1: human Caprin-2 fragment (residues 199-329), dimerization domain (domain or fragment)
chain: GPSSPSQRREHMLKLEAEKKKLRTILQVQYVLQNLTQEHVQKDFKGGLNGAVYLPSKELDYLIKFSKLTCPERNESLSVEDQMEQSSLYFWDLLEGSEKAVVGTTYKHLKDLLSKLLNSGYFESIPVPKNAKEKEVP
modifications: Se-Met labelled (L-seleno-methionine in place of methionine) in the crystal used for the structure
stoichiometry N: 2
